± gives the uncertainty stated by the source.

The data set can be described thus: self-splicing fitness, log relative to wild type (ln ratio); higher = more splicing; Tetrahymena group I intron in knt gene, E. coli kanamycin selection, DiMSum; sequences stand for … in CUCUCU…GGAGGGAAAAGUUAUCAGGCAUGCACCUGGUAGCUAGUCUUUAAACCAAUAGAUUGCAUCGGUUUAAAAGGCAAGACCGUCAAAUUGCGGGAAAGGGGUCAACAGCCGUUCAGUACCAAGUCUCAGGGGAAACUUUGAGAUGGCCUUGCAAAGGGUAUGGUAAUAAGCUGACGGACAUGGUCCUAACCACGCAGCCAAGUCCUAAGUCAACAGAUCUUCUGUUGAUAUGGAUGCAGUUCACAGACUAAAUGUCGGUCGGGGAAGAUGUAUUCUUCUCAUAAGAUAUAGUCGGACCUCUCCUUAAUGGGAGCUAGCGGAUGAAGUGAUGCAACACUGGAGCCGCUGGGAACUAAUUUGUAUGCGAAAGUAUAUUGAUUAGUUUUGGAGUACUCGUGGUCG
An outline of the steps:
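A randomised library covering all eight P1ex-region intron nucleotides was built with the intron in the knt kanamycin-resistance gene on pET-22b(+) and held in E. coli BL21(DE3). Cells were grown overnight at 37°C or 30°C on LB agar, with or without 25 μg/mL kanamycin, plus 100 μg/mL carbenicillin, 50 μM IPTG and 0.2% rhamnose, and pooled colonies were amplicon-sequenced on an Illumina HiSeq 2500. DiMSum fitness is the error-weighted combination of wild-type-normalised replicate fold changes, kanamycin versus none.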

In the case of AAUUAGCAAUAUUACGGAUG, the “self-splicing fitness (ln)” value is, setting by setting: (30 °C) -2.06 ± 0.12; (37 °C) -0.146 ± 0.15.
The matching figures for UGCCAGCAAUAUUACGUCAG: -2.49 ± 0.11 and -1.53 ± 0.14.
In the case of AGCCAGCAAUAUUACGGUUC, the “self-splicing fitness (ln)” value runs as follows: (30 °C) -4.47 ± 0.19; (37 °C) -3.66 ± 0.27.
The matching figures for AUCCAGCAAUAUUACGUCAU: -0.725 ± 0.041 and -0.313 ± 0.057.
The matching figures for GUUAAGCAAUAUUACGUUAC: -2.36 ± 0.19 and -1.33 ± 0.15.
As for AAAAAGCAAUAUUACGCUGC, the “self-splicing fitness (ln)” value (30 °C) was -3.34 ± 0.4.
Take GAACAGCAAUAUUACGCGGG: the “self-splicing fitness (ln)” value runs as follows: (30 °C) -1.87 ± 0.1; (37 °C) -1.37 ± 0.11.
The matching figures for ACGAAGCAAUAUUACGAACU: -0.572 ± 0.084 and -0.697 ± 0.093.
The matching figures for GAAAAGCAAUAUUACGCGAG: -1.64 ± 0.058 and -0.497 ± 0.068.
The matching figures for AGGCAGCAAUAUUACGGUGU: -2.38 ± 0.13 and -1.73 ± 0.15.
As for GACAAGCAAUAUUACGCUUG, the “self-splicing fitness (ln)” value (30 °C) was -4.51 ± 0.29 and the “self-splicing fitness (ln)” value (37 °C) was -2.76 ± 0.27.
The matching figures for CUCCAGCAAUAUUACGCUGC: -3.32 ± 0.15 and -2.07 ± 0.21.
The matching figures for CUUCAGCAAUAUUACGGCUC: -3.8 ± 0.37 and -2.51 ± 0.35.
The matching figures for ACACAGCAAUAUUACGGCGC: -0.533 ± 0.067 and 0.309 ± 0.079.
As for AUUGAGCAAUAUUACGGAUA, the “self-splicing fitness (ln)” value by setting is: (30 °C) -2.15 ± 0.28; (37 °C) -1.57 ± 0.25.
The matching figures for CGGCAGCAAUAUUACGACUC: -0.739 ± 0.097 and -0.759 ± 0.1.
On to UGGCAGCAAUAUUACGGCCG, for which the “self-splicing fitness (ln)” value is, setting by setting: (30 °C) -3.49 ± 0.16; (37 °C) -1.77 ± 0.16.
The matching figures for AUUAAGCAAUAUUACGAUCU: 0.226 ± 0.12 and -0.0178 ± 0.16.
The matching figures for GAACAGCAAUAUUACGAUGA: -0.145 ± 0.077 and -0.155 ± 0.081.
The matching figures for CACUAGCAAUAUUACGCGGC: -3.47 ± 0.28 and -2.97 ± 0.25.
Consider GGGGAGCAAUAUUACGCUUA, for which the “self-splicing fitness (ln)” value (30 °C) was -1.04 ± 0.2 and the “self-splicing fitness (ln)” value (37 °C) is -1.1 ± 0.27.
The matching figures for AUUAAGCAAUAUUACGGGCA: -0.791 ± 0.12 and -0.507 ± 0.12.
The matching figures for UCAAAGCAAUAUUACGAGGA: -2.69 ± 0.15 and -0.561 ± 0.13.
The matching figures for CACUAGCAAUAUUACGGGCG: -0.464 ± 0.087 and -0.0972 ± 0.084.
Regarding UCAAAGCAAUAUUACGAAAU, the “self-splicing fitness (ln)” value reads like this: (30 °C) -2.52 ± 0.2; (37 °C) -2.53 ± 0.27.
The matching figures for AUGCAGCAAUAUUACGUGCU: -2.52 ± 0.1 and -1.9 ± 0.098.
The matching figures for AUAAAGCAAUAUUACGUUGA: -2.1 ± 0.095 and -1.77 ± 0.13.
The matching figures for UACCAGCAAUAUUACGUGGU: -3.86 ± 0.14 and -2.89 ± 0.16.
For AGGCAGCAAUAUUACGACCG, the “self-splicing fitness (ln)” value amounted to 0.153 ± 0.071 (30 °C) and 0.0303 ± 0.085 (37 °C).
The matching figures for ACCGAGCAAUAUUACGCAAU: -2.71 ± 0.16 and -2.36 ± 0.32.
The matching figures for CUGGAGCAAUAUUACGUCUA: -1.72 ± 0.3 and -0.483 ± 0.23.
The matching figures for AACGAGCAAUAUUACGAGAA: -1.87 ± 0.22 and -1.56 ± 0.33.
On to UCUCAGCAAUAUUACGGACC, for which the “self-splicing fitness (ln)” value (37 °C) is -2.13 ± 0.34.
On to CAUGAGCAAUAUUACGUUUC, for which the “self-splicing fitness (ln)” value (30 °C) is -2.86 ± 0.34.
For CUCCAGCAAUAUUACGCCCG, the “self-splicing fitness (ln)” value (30 °C) is -2.56 ± 0.17 and the “self-splicing fitness (ln)” value (37 °C) is -0.904 ± 0.19.
The matching figures for CGCCAGCAAUAUUACGUUCA: -2.8 ± 0.12 and -1.86 ± 0.11.
The matching figures for UUGCAGCAAUAUUACGCCGG: -0.957 ± 0.075 and -0.103 ± 0.12.
The matching figures for AGUUAGCAAUAUUACGAAUA: -1.43 ± 0.14 and -0.681 ± 0.21.
Consider CGGCAGCAAUAUUACGUGGA, for which the “self-splicing fitness (ln)” value by setting is: (30 °C) -2.73 ± 0.26; (37 °C) -1.72 ± 0.27.
The matching figures for UGAAAGCAAUAUUACGCACA: -0.903 ± 0.15 and 0.683 ± 0.15.
As for GGCGAGCAAUAUUACGCCCA, the “self-splicing fitness (ln)” value by setting is: (30 °C) -2.15 ± 0.42; (37 °C) -0.478 ± 0.33.
Turning to ACGCAGCAAUAUUACGGAUC, the “self-splicing fitness (ln)” value by setting is: (30 °C) -1.86 ± 0.093; (37 °C) -0.813 ± 0.13.
The matching figures for AAGUAGCAAUAUUACGAGCC: -2.87 ± 0.22 and -1.34 ± 0.25.
The matching figures for AAUCAGCAAUAUUACGGGAG: -1.48 ± 0.054 and -0.88 ± 0.068.
The matching figures for GGGCAGCAAUAUUACGCACG: 0.202 ± 0.26 and -1.16 ± 0.19.
As to UCAAAGCAAUAUUACGAGGC, where the note is “37 °C”, the “self-splicing fitness (ln)” value was -2.69 ± 0.3.
Consider CACGAGCAAUAUUACGUGAU, for which the “self-splicing fitness (ln)” value was -3.91 ± 0.14 (30 °C) and -2.05 ± 0.14 (37 °C).
The matching figures for GUGUAGCAAUAUUACGGUCG: -1.32 ± 0.16 and -0.824 ± 0.25.
On to UCGCAGCAAUAUUACGCUCA, for which the “self-splicing fitness (ln)” value is -1.37 ± 0.085 (30 °C) and -0.529 ± 0.091 (37 °C).
For GCGGAGCAAUAUUACGGCGU, the “self-splicing fitness (ln)” value (30 °C) was -3.49 ± 0.33 and the “self-splicing fitness (ln)” value (37 °C) was -2.08 ± 0.31.
The matching figures for CCUAAGCAAUAUUACGAGAG: -2.31 ± 0.17 and -1.23 ± 0.13.
The matching figures for CUAAAGCAAUAUUACGGGCG: -0.0163 ± 0.069 and -0.208 ± 0.081.
The matching figures for GAUCAGCAAUAUUACGACGU: 0.142 ± 0.076 and 0.682 ± 0.089.
As to ACAGAGCAAUAUUACGUUCA, the “self-splicing fitness (ln)” value was -2.1 ± 0.14 (30 °C) and -2.33 ± 0.2 (37 °C).
The matching figures for UUCUAGCAAUAUUACGUAUU: -3.61 ± 0.33 and -2.57 ± 0.25.
On to CAACAGCAAUAUUACGUACA, for which the “self-splicing fitness (ln)” value by setting is: (30 °C) -2.28 ± 0.11; (37 °C) -1.12 ± 0.093.
The matching figures for CGACAGCAAUAUUACGCCAA: -2.18 ± 0.28 and -3.28 ± 0.37.
Consider CUCCAGCAAUAUUACGAAGA, for which the “self-splicing fitness (ln)” value (37 °C) was -3.41 ± 0.42.
For the sequence CAACAGCAAUAUUACGACAC, the “self-splicing fitness (ln)” value was -2.93 ± 0.18 (30 °C) and -1.79 ± 0.18 (37 °C).
As for ACCUAGCAAUAUUACGGGCG, the “self-splicing fitness (ln)” value by setting is: (30 °C) -0.0397 ± 0.068; (37 °C) -0.0691 ± 0.084.
The matching figures for AUCCAGCAAUAUUACGGAAG: -1.1 ± 0.11 and -0.947 ± 0.14.
The matching figures for AACCAGCAAUAUUACGCUGC: -2.31 ± 0.18 and -3.1 ± 0.24.
The matching figures for ACGCAGCAAUAUUACGGAAA: -2.7 ± 0.33 and -0.506 ± 0.21.
Turning to GUGCAGCAAUAUUACGGCCC, the “self-splicing fitness (ln)” value is -0.475 ± 0.11 (30 °C) and -0.704 ± 0.17 (37 °C).
The matching figures for UAACAGCAAUAUUACGUCAA: -2.17 ± 0.15 and -0.769 ± 0.1.
Regarding UUACAGCAAUAUUACGGACU, the “self-splicing fitness (ln)” value (30 °C) is -2.05 ± 0.17 and the “self-splicing fitness (ln)” value (37 °C) was -1.9 ± 0.17.
The matching figures for CCUAAGCAAUAUUACGCGAU: -3.49 ± 0.24 and -2.31 ± 0.27.
Take UGUAAGCAAUAUUACGACUG: the “self-splicing fitness (ln)” value is, setting by setting: (30 °C) -0.779 ± 0.11; (37 °C) -1.14 ± 0.14.
The matching figures for UCACAGCAAUAUUACGCCGA: -0.333 ± 0.1 and 0.184 ± 0.14.
The matching figures for CUUCAGCAAUAUUACGAACC: -1.67 ± 0.41 and -1.18 ± 0.35.
Regarding ACCUAGCAAUAUUACGGUUA, the “self-splicing fitness (ln)” value was -2.38 ± 0.18 (30 °C) and -1.57 ± 0.14 (37 °C).
Consider UUGCAGCAAUAUUACGAAUC, for which the “self-splicing fitness (ln)” value (37 °C) was -2.06 ± 0.47.
Turning to UGGCAGCAAUAUUACGCGAU, the “self-splicing fitness (ln)” value (30 °C) is -2.67 ± 0.18 and the “self-splicing fitness (ln)” value (37 °C) was -2.01 ± 0.21.
The matching figures for UUCGAGCAAUAUUACGAUUU: -4.18 ± 0.28 and -2.19 ± 0.2.
The matching figures for GAGGAGCAAUAUUACGCGAA: -2.67 ± 0.35 and -2.05 ± 0.3.
The matching figures for CCGAAGCAAUAUUACGGUGG: -4.27 ± 0.24 and -1.35 ± 0.11.
Take CGCGAGCAAUAUUACGACUU: the “self-splicing fitness (ln)” value (37 °C) is -1.2 ± 0.47.

The values are drawn from the supplement of paper PMC7877785.
